# Measured values reported in paper PMC3939855.
# T1: IRF3 (endogenous, MEFs) (mouse (endogenous in MEFs)), P70671
# T1 chain: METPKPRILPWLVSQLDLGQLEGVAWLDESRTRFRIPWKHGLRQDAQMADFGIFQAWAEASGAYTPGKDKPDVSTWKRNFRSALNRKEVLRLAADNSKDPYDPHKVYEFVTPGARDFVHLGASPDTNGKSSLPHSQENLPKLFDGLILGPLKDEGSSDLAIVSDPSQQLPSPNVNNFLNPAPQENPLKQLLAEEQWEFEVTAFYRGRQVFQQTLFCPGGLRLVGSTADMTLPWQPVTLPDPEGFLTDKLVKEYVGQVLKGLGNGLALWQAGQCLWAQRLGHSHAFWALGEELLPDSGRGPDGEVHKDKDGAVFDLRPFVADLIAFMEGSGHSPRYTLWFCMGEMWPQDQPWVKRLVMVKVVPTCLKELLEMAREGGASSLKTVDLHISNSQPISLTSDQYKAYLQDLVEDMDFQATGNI
# T2: IRF3 (endogenous, 293T cells) (human (endogenous in 293T)), Q14653
# T2 chain: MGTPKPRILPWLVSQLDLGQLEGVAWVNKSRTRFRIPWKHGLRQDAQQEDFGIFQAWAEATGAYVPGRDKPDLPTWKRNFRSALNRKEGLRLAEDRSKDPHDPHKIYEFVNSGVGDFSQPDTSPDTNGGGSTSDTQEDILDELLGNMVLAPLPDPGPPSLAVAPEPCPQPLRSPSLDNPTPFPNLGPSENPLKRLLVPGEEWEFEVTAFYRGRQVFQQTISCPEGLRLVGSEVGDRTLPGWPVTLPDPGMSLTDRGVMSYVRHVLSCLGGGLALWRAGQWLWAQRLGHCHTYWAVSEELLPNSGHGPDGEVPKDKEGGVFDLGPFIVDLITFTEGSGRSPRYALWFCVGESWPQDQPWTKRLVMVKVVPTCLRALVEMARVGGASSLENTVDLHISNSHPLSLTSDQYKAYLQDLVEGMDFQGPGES
# B1: IRF3 (endogenous, MEFs), P70671 1-419 (natural protein)
# chain: METPKPRILPWLVSQLDLGQLEGVAWLDESRTRFRIPWKHGLRQDAQMADFGIFQAWAEASGAYTPGKDKPDVSTWKRNFRSALNRKEVLRLAADNSKDPYDPHKVYEFVTPGARDFVHLGASPDTNGKSSLPHSQENLPKLFDGLILGPLKDEGSSDLAIVSDPSQQLPSPNVNNFLNPAPQENPLKQLLAEEQWEFEVTAFYRGRQVFQQTLFCPGGLRLVGSTADMTLPWQPVTLPDPEGFLTDKLVKEYVGQVLKGLGNGLALWQAGQCLWAQRLGHSHAFWALGEELLPDSGRGPDGEVHKDKDGAVFDLRPFVADLIAFMEGSGHSPRYTLWFCMGEMWPQDQPWVKRLVMVKVVPTCLKELLEMAREGGASSLKTVDLHISNSQPISLTSDQYKAYLQDLVEDMDFQATGNI
# B2: IRF3 (endogenous, 293T cells), Q14653 1-427 (natural protein)
# chain: MGTPKPRILPWLVSQLDLGQLEGVAWVNKSRTRFRIPWKHGLRQDAQQEDFGIFQAWAEATGAYVPGRDKPDLPTWKRNFRSALNRKEGLRLAEDRSKDPHDPHKIYEFVNSGVGDFSQPDTSPDTNGGGSTSDTQEDILDELLGNMVLAPLPDPGPPSLAVAPEPCPQPLRSPSLDNPTPFPNLGPSENPLKRLLVPGEEWEFEVTAFYRGRQVFQQTISCPEGLRLVGSEVGDRTLPGWPVTLPDPGMSLTDRGVMSYVRHVLSCLGGGLALWRAGQWLWAQRLGHCHTYWAVSEELLPNSGHGPDGEVPKDKEGGVFDLGPFIVDLITFTEGSGRSPRYALWFCVGESWPQDQPWTKRLVMVKVVPTCLRALVEMARVGGASSLENTVDLHISNSHPLSLTSDQYKAYLQDLVEGMDFQGPGES
# Experiments:
# [1] = biological target: T1, IRF3 (endogenous, MEFs) (mouse …); experiment: native gel or EMSA; conditions: remark: other sources report otherwise
# [2] = biological target: T2, IRF3 (endogenous, 293T cells) (human …); experiment: native gel or EMSA; conditions: remark: other sources report otherwise
binder,measurement,setting,value
B1,stoichiometry N,[1],2
B2,stoichiometry N,[2],2
